Measurements as given in PMC5363614, “Secreted protein acidic and rich in cysteine (SPARC) induces lipotoxicity in neuroblastoma by regulating transport of albumin complexed with fatty acids” (Oncotarget, 2016).

Target: T1, Bovine serum albumin (bovine, UniProt P02769 25-607)
T1 construct: Serum albumin, bovine (BSA); Unlabelled BSA used as analyte in SPR; also called BSA; source: bought: Sigma-Aldrich
Test: SPR; BIAcore 3000; histidine-tagged SPARC immobilised on Sensor NTA chip to about 100 RU; BSA as analyte, room temperature, 20 ul/minute, 5 minutes association, 5 minutes dissociation; global Langmuir fitting
Conditions: both partners purified

T1 sequence (P02769 25-607): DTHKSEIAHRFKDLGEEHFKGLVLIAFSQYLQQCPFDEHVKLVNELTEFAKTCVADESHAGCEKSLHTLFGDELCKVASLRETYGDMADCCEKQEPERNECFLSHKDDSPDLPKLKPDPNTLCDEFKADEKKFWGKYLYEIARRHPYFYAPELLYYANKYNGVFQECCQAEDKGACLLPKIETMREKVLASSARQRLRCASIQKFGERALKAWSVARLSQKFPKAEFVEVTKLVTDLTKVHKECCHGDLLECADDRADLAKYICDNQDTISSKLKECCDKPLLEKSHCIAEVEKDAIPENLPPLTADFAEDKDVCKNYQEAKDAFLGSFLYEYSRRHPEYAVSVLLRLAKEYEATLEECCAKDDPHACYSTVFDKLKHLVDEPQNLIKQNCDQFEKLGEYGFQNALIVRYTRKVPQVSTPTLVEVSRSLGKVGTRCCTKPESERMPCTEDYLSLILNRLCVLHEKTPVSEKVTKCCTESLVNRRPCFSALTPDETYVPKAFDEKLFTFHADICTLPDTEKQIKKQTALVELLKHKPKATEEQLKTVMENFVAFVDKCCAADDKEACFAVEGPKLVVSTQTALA

B1: Recombinant human SPARC (secreted protein acidic and rich in cysteine), histidine-tagged (natural protein, UniProt P09486 18-303, looked up)
chain: APQQEALPDETEVVEETVAEVTEVSVGANPVQVEVGEFDDGAEETEEEVVAENPCQNHHCKHGKVCELDENNTPMCVCQDPTSCPAPIGEFEKVCSNDNKTFDSSCHFFATKCTLEGTKKGHKLHLDYIGPCKYIPPCLDSELTEFPLRMRDWLKNVLVTLYERDEDNNLLTEKQKLRVKKIHENEKRLEAGDHPVELLARDFEKNYNMYIFPVHWQFGQLDQHPIDGYLSHTELAPLRAPLIPMEHCTTRFFETCDLDNDKYIALDEWAGCFGIKQKDIDKDLVI
notes: Secreted protein acidic and rich in cysteine (SPARC), human, recombinant; The histidine tag is named for the SPR experiment; also called rhSPARC; histidine-tagged recombinant SPARC; source: HEK293 cells transfected with SPARC, serum-free conditioned media; purified as described [25]
B1 gave a Kd of 18.9 µM.
